Here are results for 36 variants from the Human Domainome abundance scans (Beltran et al. 2025).

B1: Far upstream element-binding protein 3, residues 75 to 150; numbered along this chain, Q96I24 (parent)
chain: RTVITEEFKVPDKMVGFIIGRGGEQISRIQAESGCKIQIASESSGIPERPCVLTGTPESIEQAKRLLGQIVDRCRN

± gives the uncertainty stated by the source.

In the data set the parent is B1. Description: abundance fitness (aPCA) (normalised: wild type 0, dead -1); higher = more abundant; growth selection in yeast, the domain comes from the species named. The settings on record: Homo sapiens.
In the case of RTVITEEFKVPDKCVGFIIGRGGEQISRIQAESGCKIQIASESSGIPERPCVLTGTPESIEQAKRLLGQIVDRCRN [M14C], the abundance fitness was -0.063 ± 0.048.

For the variant RTVITEEFKVPDKAVGFIIGRGGEQISRIQAESGCKIQIASESSGIPERPCVLTGTPESIEQAKRLLGQIVDRCRN [M14A], the abundance fitness was -0.172 ± 0.035.

For the variant RTVITEEFKVPGKMVGFIIGRGGEQISRIQAESGCKIQIASESSGIPERPCVLTGTPESIEQAKRLLGQIVDRCRN [D12G], the abundance fitness is -0.095 ± 0.027.

Regarding RTVITEEFKVPNKMVGFIIGRGGEQISRIQAESGCKIQIASESSGIPERPCVLTGTPESIEQAKRLLGQIVDRCRN [D12N], the abundance fitness is -0.004 ± 0.058.

Turning to RTVITEEFKVPQKMVGFIIGRGGEQISRIQAESGCKIQIASESSGIPERPCVLTGTPESIEQAKRLLGQIVDRCRN [D12Q], the abundance fitness was -0.155 ± 0.043.

RTVITEEFKVPSKMVGFIIGRGGEQISRIQAESGCKIQIASESSGIPERPCVLTGTPESIEQAKRLLGQIVDRCRN [D12S]: the abundance fitness is -0.027 ± 0.032.

In the case of RTVITEEFKVPAKMVGFIIGRGGEQISRIQAESGCKIQIASESSGIPERPCVLTGTPESIEQAKRLLGQIVDRCRN [D12A], the abundance fitness is -0.024 ± 0.03.

Consider RTVITEEFKVPEKMVGFIIGRGGEQISRIQAESGCKIQIASESSGIPERPCVLTGTPESIEQAKRLLGQIVDRCRN [D12E], for which the abundance fitness is -0.053 ± 0.036.

With RTVITEEFKVPYKMVGFIIGRGGEQISRIQAESGCKIQIASESSGIPERPCVLTGTPESIEQAKRLLGQIVDRCRN [D12Y], the abundance fitness was -0.116 ± 0.073.

Turning to RTVITEEFKVPVKMVGFIIGRGGEQISRIQAESGCKIQIASESSGIPERPCVLTGTPESIEQAKRLLGQIVDRCRN [D12V], the abundance fitness is -0.137 ± 0.031.

Regarding RTVITEEFKVPTKMVGFIIGRGGEQISRIQAESGCKIQIASESSGIPERPCVLTGTPESIEQAKRLLGQIVDRCRN [D12T], the abundance fitness was -0.073 ± 0.04.

Take RTVITEEFKVPWKMVGFIIGRGGEQISRIQAESGCKIQIASESSGIPERPCVLTGTPESIEQAKRLLGQIVDRCRN [D12W]: the abundance fitness was -0.255 ± 0.034.

Consider RTVITEEFKVPFKMVGFIIGRGGEQISRIQAESGCKIQIASESSGIPERPCVLTGTPESIEQAKRLLGQIVDRCRN [D12F], for which the abundance fitness was -0.186 ± 0.064.

For RTVITEEFKVPLKMVGFIIGRGGEQISRIQAESGCKIQIASESSGIPERPCVLTGTPESIEQAKRLLGQIVDRCRN [D12L], the abundance fitness is -0.173 ± 0.031.

As to RTVITEEFKVPMKMVGFIIGRGGEQISRIQAESGCKIQIASESSGIPERPCVLTGTPESIEQAKRLLGQIVDRCRN [D12M], the abundance fitness was -0.144 ± 0.041.

Take RTVITEEFKVPPKMVGFIIGRGGEQISRIQAESGCKIQIASESSGIPERPCVLTGTPESIEQAKRLLGQIVDRCRN [D12P]: the abundance fitness is -0.058 ± 0.039.

Turning to RTVITEEFKVPRKMVGFIIGRGGEQISRIQAESGCKIQIASESSGIPERPCVLTGTPESIEQAKRLLGQIVDRCRN [D12R], the abundance fitness is -0.1 ± 0.028.

RTVITEEFKVPKKMVGFIIGRGGEQISRIQAESGCKIQIASESSGIPERPCVLTGTPESIEQAKRLLGQIVDRCRN [D12K]: the abundance fitness was -0.066 ± 0.049.

Consider RTVITEEFYVPDKMVGFIIGRGGEQISRIQAESGCKIQIASESSGIPERPCVLTGTPESIEQAKRLLGQIVDRCRN [K9Y], for which the abundance fitness was -0.114 ± 0.056.

RTVITEEFWVPDKMVGFIIGRGGEQISRIQAESGCKIQIASESSGIPERPCVLTGTPESIEQAKRLLGQIVDRCRN [K9W]: the abundance fitness is -0.053 ± 0.031.

With RTVITEEFVVPDKMVGFIIGRGGEQISRIQAESGCKIQIASESSGIPERPCVLTGTPESIEQAKRLLGQIVDRCRN [K9V], the abundance fitness was -0.047 ± 0.028.

RTVITEEFKVPDAMVGFIIGRGGEQISRIQAESGCKIQIASESSGIPERPCVLTGTPESIEQAKRLLGQIVDRCRN [K13A]: the abundance fitness was -0.054 ± 0.03.

Regarding RTVITEEFKVPDYMVGFIIGRGGEQISRIQAESGCKIQIASESSGIPERPCVLTGTPESIEQAKRLLGQIVDRCRN [K13Y], the abundance fitness stood at 0.022 ± 0.06.

Consider RTVITEEFKVPDQMVGFIIGRGGEQISRIQAESGCKIQIASESSGIPERPCVLTGTPESIEQAKRLLGQIVDRCRN [K13Q], for which the abundance fitness was -0.017 ± 0.038.

Consider RTVITEEFKVPDWMVGFIIGRGGEQISRIQAESGCKIQIASESSGIPERPCVLTGTPESIEQAKRLLGQIVDRCRN [K13W], for which the abundance fitness is -0.142 ± 0.032.

In the case of RTVITEEFKVPDGMVGFIIGRGGEQISRIQAESGCKIQIASESSGIPERPCVLTGTPESIEQAKRLLGQIVDRCRN [K13G], the abundance fitness is -0.027 ± 0.026.

For the variant RTVITEEFKVPDTMVGFIIGRGGEQISRIQAESGCKIQIASESSGIPERPCVLTGTPESIEQAKRLLGQIVDRCRN [K13T], the abundance fitness was -0.073 ± 0.039.

Turning to RTVITEEFKVPDEMVGFIIGRGGEQISRIQAESGCKIQIASESSGIPERPCVLTGTPESIEQAKRLLGQIVDRCRN [K13E], the abundance fitness was -0.032 ± 0.035.

Regarding RTVITEEFKVPDFMVGFIIGRGGEQISRIQAESGCKIQIASESSGIPERPCVLTGTPESIEQAKRLLGQIVDRCRN [K13F], the abundance fitness is -0.243 ± 0.061.

For RTVITEEFKVPDNMVGFIIGRGGEQISRIQAESGCKIQIASESSGIPERPCVLTGTPESIEQAKRLLGQIVDRCRN [K13N], the abundance fitness worked out at 0.004 ± 0.057.

Turning to RTVITEEFKVPDIMVGFIIGRGGEQISRIQAESGCKIQIASESSGIPERPCVLTGTPESIEQAKRLLGQIVDRCRN [K13I], the abundance fitness was -0.286 ± 0.068.

Regarding RTVITEEFKVPDDMVGFIIGRGGEQISRIQAESGCKIQIASESSGIPERPCVLTGTPESIEQAKRLLGQIVDRCRN [K13D], the abundance fitness was -0.082 ± 0.043.

With RTVITEEFKVPDCMVGFIIGRGGEQISRIQAESGCKIQIASESSGIPERPCVLTGTPESIEQAKRLLGQIVDRCRN [K13C], the abundance fitness was -0.058 ± 0.041.

As to RTVITEEFKVPDHMVGFIIGRGGEQISRIQAESGCKIQIASESSGIPERPCVLTGTPESIEQAKRLLGQIVDRCRN [K13H], the abundance fitness worked out at 0.016 ± 0.056.

As to RTVITEEFKVPDRMVGFIIGRGGEQISRIQAESGCKIQIASESSGIPERPCVLTGTPESIEQAKRLLGQIVDRCRN [K13R], the abundance fitness is -0.046 ± 0.026.

Take RTVITEEFKVPDVMVGFIIGRGGEQISRIQAESGCKIQIASESSGIPERPCVLTGTPESIEQAKRLLGQIVDRCRN [K13V]: the abundance fitness was -0.263 ± 0.03.
